The source of these data is PMC4681132 (Nature, 2015).

Sequences and labels used below:
B2: RNA polymerase III subunit C37 (natural protein, S. cerevisiae)
chain: MSIDNKLFVTEEDEEDRTQDRADVEDESNDIDMIADENGTNSAIANEQEEKSEEVKAEDDTGEEEEDDPVIEEFPLKISGEEESLHVFQYANRPRLVGRKPAEHPFISAARYKPKSHLWEIDIPLDEQAFYNKDKAESEWNGVNVQTLKGVGVENNGQYAAFVKDMQVYLVPIERVAQLKPFFKYIDDANVTRKQEDARRNPNPSSQRAQVVTMSVKSVNDPSQNRLTGSLLAHKVADEEANIELTWAEGTFEQFKDTIVKEAEDKTLVALEKQEDYIDNLV

Holding throughout (assay): cryo-EM structure
Experiment [1] concerns the target T1, RNA polymerase III stalk subunit C25 (S. cerevisiae, UniProt P35718 1-212).
T1 sequence: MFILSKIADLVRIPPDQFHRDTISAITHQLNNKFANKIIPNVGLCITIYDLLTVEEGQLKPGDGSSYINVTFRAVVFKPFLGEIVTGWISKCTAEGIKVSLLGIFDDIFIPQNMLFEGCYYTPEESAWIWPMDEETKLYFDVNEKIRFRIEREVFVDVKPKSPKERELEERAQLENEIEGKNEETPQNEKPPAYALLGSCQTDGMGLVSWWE

In experiment [2] the target is T2, RNA polymerase III subunit C160 (S. cerevisiae, UniProt P04051 1-1460).
T2 sequence: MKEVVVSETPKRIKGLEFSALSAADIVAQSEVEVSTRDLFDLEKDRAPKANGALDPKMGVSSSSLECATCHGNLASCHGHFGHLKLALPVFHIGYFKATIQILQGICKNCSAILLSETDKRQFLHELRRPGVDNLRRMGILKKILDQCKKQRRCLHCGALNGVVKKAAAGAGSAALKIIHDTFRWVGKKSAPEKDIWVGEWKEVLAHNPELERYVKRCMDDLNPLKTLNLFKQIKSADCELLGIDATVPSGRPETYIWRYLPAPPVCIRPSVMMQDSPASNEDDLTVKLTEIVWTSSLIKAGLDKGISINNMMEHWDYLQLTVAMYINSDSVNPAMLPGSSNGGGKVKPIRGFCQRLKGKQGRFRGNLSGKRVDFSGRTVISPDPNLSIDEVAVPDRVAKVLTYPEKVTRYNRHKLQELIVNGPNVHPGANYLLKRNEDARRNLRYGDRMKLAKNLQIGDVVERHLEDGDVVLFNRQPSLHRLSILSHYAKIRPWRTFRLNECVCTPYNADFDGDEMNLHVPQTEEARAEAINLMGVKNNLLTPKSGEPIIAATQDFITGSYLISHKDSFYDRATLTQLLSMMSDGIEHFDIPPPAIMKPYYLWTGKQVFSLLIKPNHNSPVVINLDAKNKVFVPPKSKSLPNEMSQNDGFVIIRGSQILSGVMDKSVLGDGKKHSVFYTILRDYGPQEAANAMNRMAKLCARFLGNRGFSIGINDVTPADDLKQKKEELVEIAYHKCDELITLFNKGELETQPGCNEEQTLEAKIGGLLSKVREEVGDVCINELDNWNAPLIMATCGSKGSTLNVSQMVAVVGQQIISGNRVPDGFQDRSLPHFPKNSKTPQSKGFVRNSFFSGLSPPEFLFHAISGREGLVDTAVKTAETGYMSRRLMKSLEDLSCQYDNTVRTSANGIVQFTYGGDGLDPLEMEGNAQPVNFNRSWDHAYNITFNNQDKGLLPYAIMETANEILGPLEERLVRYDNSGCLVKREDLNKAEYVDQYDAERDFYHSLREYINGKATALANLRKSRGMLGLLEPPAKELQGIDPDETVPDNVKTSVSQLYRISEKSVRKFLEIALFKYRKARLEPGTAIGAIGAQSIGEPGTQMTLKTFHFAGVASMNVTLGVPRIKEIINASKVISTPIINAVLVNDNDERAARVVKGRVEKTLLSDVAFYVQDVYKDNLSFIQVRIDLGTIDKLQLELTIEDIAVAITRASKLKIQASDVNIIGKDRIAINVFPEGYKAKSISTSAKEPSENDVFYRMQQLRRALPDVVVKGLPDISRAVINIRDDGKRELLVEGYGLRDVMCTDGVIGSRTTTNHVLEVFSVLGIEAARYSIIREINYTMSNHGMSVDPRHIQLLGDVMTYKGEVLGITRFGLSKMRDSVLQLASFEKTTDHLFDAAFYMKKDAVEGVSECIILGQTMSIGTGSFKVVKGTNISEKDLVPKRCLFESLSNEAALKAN

For experiment [3], the target named is T3, RNA polymerase III subunit C53 (S. cerevisiae, UniProt P25441 1-422).
T3 sequence: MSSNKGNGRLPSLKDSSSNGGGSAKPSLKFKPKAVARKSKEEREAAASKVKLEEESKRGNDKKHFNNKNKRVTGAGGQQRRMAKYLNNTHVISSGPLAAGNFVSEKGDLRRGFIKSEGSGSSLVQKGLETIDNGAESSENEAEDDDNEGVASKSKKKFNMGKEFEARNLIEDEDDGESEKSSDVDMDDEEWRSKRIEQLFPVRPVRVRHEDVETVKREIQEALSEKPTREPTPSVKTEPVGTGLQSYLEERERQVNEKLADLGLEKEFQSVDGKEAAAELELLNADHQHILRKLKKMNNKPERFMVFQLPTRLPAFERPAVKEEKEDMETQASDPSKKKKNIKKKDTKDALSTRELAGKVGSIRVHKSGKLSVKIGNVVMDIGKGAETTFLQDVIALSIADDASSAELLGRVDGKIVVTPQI

Experiment [4] concerns the target T4, RNA polymerase III subunit C128 (S. cerevisiae, UniProt P22276 1-1149).
T4 sequence: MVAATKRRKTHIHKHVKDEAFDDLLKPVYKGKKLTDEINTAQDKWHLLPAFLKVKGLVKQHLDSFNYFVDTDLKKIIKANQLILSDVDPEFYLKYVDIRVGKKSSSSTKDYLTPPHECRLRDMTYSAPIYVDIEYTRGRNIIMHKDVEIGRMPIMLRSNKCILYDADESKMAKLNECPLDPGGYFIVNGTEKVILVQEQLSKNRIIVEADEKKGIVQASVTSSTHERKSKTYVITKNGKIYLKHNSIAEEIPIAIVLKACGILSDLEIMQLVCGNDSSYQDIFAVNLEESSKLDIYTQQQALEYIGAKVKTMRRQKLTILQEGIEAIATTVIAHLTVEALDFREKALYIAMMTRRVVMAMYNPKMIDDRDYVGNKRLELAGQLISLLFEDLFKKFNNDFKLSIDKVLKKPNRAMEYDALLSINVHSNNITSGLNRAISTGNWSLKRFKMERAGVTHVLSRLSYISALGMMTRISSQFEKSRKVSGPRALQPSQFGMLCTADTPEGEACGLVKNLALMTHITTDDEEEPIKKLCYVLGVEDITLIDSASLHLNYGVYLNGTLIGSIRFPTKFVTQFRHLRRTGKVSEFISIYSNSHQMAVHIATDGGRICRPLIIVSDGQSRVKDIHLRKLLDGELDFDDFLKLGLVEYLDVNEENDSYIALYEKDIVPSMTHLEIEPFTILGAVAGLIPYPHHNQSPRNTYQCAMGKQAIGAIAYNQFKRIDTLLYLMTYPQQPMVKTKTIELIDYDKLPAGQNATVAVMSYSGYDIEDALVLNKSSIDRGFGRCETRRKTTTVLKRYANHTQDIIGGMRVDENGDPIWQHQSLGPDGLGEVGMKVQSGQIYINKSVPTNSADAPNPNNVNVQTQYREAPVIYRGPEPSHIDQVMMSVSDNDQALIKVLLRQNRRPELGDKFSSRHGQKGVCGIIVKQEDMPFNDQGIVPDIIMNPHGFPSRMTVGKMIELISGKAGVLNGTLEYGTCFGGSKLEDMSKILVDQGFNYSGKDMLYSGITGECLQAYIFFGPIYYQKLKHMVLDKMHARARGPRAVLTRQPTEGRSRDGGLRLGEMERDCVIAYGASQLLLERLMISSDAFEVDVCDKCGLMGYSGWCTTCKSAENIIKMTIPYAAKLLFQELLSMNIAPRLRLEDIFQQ

The target of experiment [5] is B2.

B1: RNA polymerase III stalk subunit C17 (natural protein, S. cerevisiae)
chain: MKVLEERNAFLSDYEVLKFLTDLEKKHLWDQKSLAALKKSRSKGKQNRPYNHPELQGITRNVVNYLSINKNFINQEDEGEERESSGAKDAEKSGISKMSDESFAELMTKLNSFKLFKAEKLQIVNQLPANMVHLYSIVEECDARFDEKTIEEMLEIISGYA
Regarding B1, the binding result in experiment [1] and in experiment [2] was “binds” throughout.
Consider B2, for which the binding result in experiment [3] and in experiment [4] was “binds” in each case.

B3: RNA polymerase III subunit C11 (natural protein, S. cerevisiae)
chain: MLSFCPSCNNMLLITSGDSGVYTLACRSCPYEFPIEGIEIYDRKKLPRKEVDDVLGGGWDNVDQTKTQCPNYDTCGGESAYFFQLQIRSADEPMTTFYKCVNCGHRWKEN
Regarding B3, the binding result in experiment [4], in experiment [2] and in experiment [5] was “binds” each time.
